Measured values taken from patent publication US20100248359A1 (Chugai, published 2010).
Residue numbers refer to the chain shown, from its start. Names and notes keep the numbering of the source. Read-outs that look alike come from different tables or passages of the source.

How the values were obtained:
[1] = molecular target: T1, GC-3 (GST fusion of GPC3 Ala524 to Lys563) (human, UniProt P51654 524-563); assay: Western blotting of GST-fusion proteins
T1 construct: not shown: GST as encoded by pGEX-4T-3 (Amersham), N-terminal to the GPC3 peptide
T1 chain: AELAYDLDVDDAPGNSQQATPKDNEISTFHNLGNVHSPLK

[2] = molecular target: T2, full-length human GPC3 (human, UniProt P51654 25-554); assay: flow cytometry, antibody at 5 µg/mL, HepG2 cells
T2 construct: On CHO (DXB11) or SK-HEP-1 (SK-03) transfectants; also used here for the GPC3 on the hepatoma lines HepG2 and HuH-7; also called human glypican 3

[3] = molecular target: T2, full-length human GPC3; assay: flow cytometry, antibody at 5 µg/mL, HuH-7 cells
[4] = molecular target: T3, soluble form of GPC3 core protein (human, UniProt P51654 25-563); assay: ELISA on plate coated with soluble GPC3 core protein
T3 construct: not shown: His tag added to the C-terminus

[5] = molecular target: T2, full-length human GPC3; assay: flow cytometry, antibody at 5 µg/mL, CHO cells expressing human GPC3 (column CHO/human GPC3)
[6] = molecular target: T3, soluble form of GPC3 core protein; assay: ELISA on plate coated with soluble GPC3 core protein; antibody from COS7 culture supernatant
[7] = molecular target: T3, soluble form of GPC3 core protein; assay: ELISA on plate coated with soluble GPC3 core protein; antibody from COS7 culture supernatant [upper left panel]
[8] = molecular target: T3, soluble form of GPC3 core protein; assay: ELISA on plate coated with soluble GPC3 core protein; antibody from COS7 culture supernatant [lower right panel]
[9] = molecular target: T3, soluble form of GPC3 core protein; assay: ELISA on plate coated with soluble GPC3 core protein; antibody from COS7 culture supernatant [middle right panel]
[10] = molecular target: T1, GC-3 (GST fusion of GPC3 Ala524 to …); assay: Western blotting of GST-fusion proteins, reducing SDS-PAGE
[11] = molecular target: T2, full-length human GPC3; assay: flow cytometry, antibody at 5 µg/mL, HepG2 cells; remark: listed apart in the source
[12] = molecular target: T2, full-length human GPC3; assay: flow cytometry, antibody at 5 µg/mL, HuH-7 cells; remark: listed apart in the source
[13] = molecular target: T3, soluble form of GPC3 core protein; assay: ELISA on plate coated with soluble GPC3 core protein; remark: listed apart in the source
[14] = molecular target: T2, full-length human GPC3; assay: BIACORE; the form of GPC3 used is not given
[15] = molecular target: T4, secreted form of GPC3 in the culture supernatant of HepG2 (human, UniProt P51654 25-358, limits assumed); assay: immunoprecipitation of the culture supernatant of HepG2, detection of secreted GPC3
T4 construct: also called secretory GPC3; secreted form of GPC3 of 40 kDa

[16] = molecular target: T3, soluble form of GPC3 core protein; assay: competitive ELISA on coated soluble GPC3 core protein; labelled competitor biotin-M1E7;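 note: Biotin-labelled antibody added as 10 µL at 10 µg/mL for 1 h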
[17] = molecular target: T3, soluble form of GPC3 core protein; assay: competitive ELISA on coated soluble GPC3 core protein; labelled competitor biotin-M5B9;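 note: Biotin-labelled antibody added as 10 µL at 10 µg/mL for 1 h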
[18] = molecular target: T3, soluble form of GPC3 core protein; assay: competitive ELISA on coated soluble GPC3 core protein; labelled competitor biotin-M6B1;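 note: Biotin-labelled antibody added as 10 µL at 10 µg/mL for 1 h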
[19] = molecular target: T3, soluble form of GPC3 core protein; assay: competitive ELISA on coated soluble GPC3 core protein; labelled competitor biotin-L9G11;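 note: Biotin-labelled antibody added as 10 µL at 10 µg/mL for 1 h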
[20] = molecular target: T3, soluble form of GPC3 core protein; assay: competitive ELISA on coated soluble GPC3 core protein; labelled competitor biotin-M10D2;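 note: Biotin-labelled antibody added as 10 µL at 10 µg/mL for 1 h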
[21] = molecular target: T3, soluble form of GPC3 core protein; assay: competitive ELISA on coated soluble GPC3 core protein; labelled competitor biotin-M11F1;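 note: Biotin-labelled antibody added as 10 µL at 10 µg/mL for 1 h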
[22] = molecular target: T3, soluble form of GPC3 core protein; assay: competitive ELISA on coated soluble GPC3 core protein; labelled competitor biotin-M18D4;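 note: Biotin-labelled antibody added as 10 µL at 10 µg/mL for 1 h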
[23] = molecular target: T3, soluble form of GPC3 core protein; assay: competitive ELISA on coated soluble GPC3 core protein; labelled competitor biotin-M3C11;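 note: Biotin-labelled antibody added as 10 µL at 10 µg/mL for 1 h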
[24] = molecular target: T2, full-length human GPC3; assay: flow cytometry, antibody at 5 µg/mL, CHO cells expressing human GPC3 (column CHO/human GPC3); remark: listed apart in the source

T2 sequence (P51654 25-554 limits assumed): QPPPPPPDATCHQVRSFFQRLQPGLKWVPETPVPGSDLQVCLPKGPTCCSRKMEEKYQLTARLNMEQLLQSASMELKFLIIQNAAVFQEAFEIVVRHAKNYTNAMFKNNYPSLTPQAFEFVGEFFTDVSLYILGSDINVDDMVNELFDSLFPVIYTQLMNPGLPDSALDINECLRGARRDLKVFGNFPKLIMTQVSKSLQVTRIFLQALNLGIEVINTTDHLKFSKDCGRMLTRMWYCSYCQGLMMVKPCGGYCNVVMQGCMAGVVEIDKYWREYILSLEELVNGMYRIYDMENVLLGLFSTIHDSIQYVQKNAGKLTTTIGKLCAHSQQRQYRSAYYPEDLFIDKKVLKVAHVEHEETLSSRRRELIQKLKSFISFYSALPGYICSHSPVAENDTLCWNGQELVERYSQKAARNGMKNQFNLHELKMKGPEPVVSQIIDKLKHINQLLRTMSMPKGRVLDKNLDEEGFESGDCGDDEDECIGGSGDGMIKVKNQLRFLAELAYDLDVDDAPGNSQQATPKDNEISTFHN
T4 sequence (P51654 25-358 limits assumed): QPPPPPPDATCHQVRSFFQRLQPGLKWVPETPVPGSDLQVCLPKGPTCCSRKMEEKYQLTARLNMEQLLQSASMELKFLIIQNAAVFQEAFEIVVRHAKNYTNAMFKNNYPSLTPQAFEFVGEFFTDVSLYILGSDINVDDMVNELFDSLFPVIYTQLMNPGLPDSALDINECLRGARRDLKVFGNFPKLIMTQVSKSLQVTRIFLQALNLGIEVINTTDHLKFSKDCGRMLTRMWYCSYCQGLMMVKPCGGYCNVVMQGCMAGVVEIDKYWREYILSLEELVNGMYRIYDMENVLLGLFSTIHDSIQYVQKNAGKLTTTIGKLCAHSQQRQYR

B1: GC179 (antibody, V domains shown)
VH: EVQLVETGGGLVQPEGSLKLSCAASGFSFNINAMNWVRQAPGKGLEWVARIRSESNNYATYYGDSVKDRFTISRDDSQNMLYLQMNNLKTEDTAIYYCVREVTTSFAYWGQGTLVTVSA
VL: DIVMTQSAPSVPVTPGESVSISCKSSKSLLHSNGNTYLNWFLQRPGQSPQLLIYWMSNLASGVPDRFSGSGSGTAFTLRISRVEAEDVGVYYCMQHIEYPFTFGTGTKLEIK
notes: Mouse monoclonal from a mouse immunized with GC-3
binding result [1]: binds
FACS X-mode value of the histogram [2]: 6.5
FACS X-mode value of the histogram [3]: 3.8
EC50 [4]: 5.61 nM
FACS X-mode value of the histogram [5]: 7.1

B2: humanized GC33 H chain ver.k / L chain ver.a (antibody, V domains shown)
VH: QVQLVQSGAEVKKPGASVKVSCKASGYTFTDYEMHWVRQAPGQGLEWMGALDPKTGDTAYSQKFKGRVTLTADKSTSTAYMELSSLTSEDTAVYYCTRFYSYTYWGQGTLVTVSS
VL: DVVMTQSPLSLPVTPGEPASISCRSSQSLVHSNGNTYLHWYLQKPGQSPQLLIYKVSNRFSGVPDRFSGSGSGTDFTLKISRVEAEDVGVYYCSQNTHVPPTFGQGTKLEIK
notes: Parent of the N33 and G34 L chain variants
EC50 (read off the curve) [6]: ~0.02 µg/mL

B3: modified humanized GC33 (H chain ver.k, L chain G34A) (antibody, human IgG1, V domains shown)
VH: B2 VH
VL: B2 VL with G34A
notes: COS7 supernatant; human IgG1/kappa
EC50 (read off the curve) [7]: ~0.02 µg/mL

B4: modified humanized GC33 (H chain ver.k, L chain G34D) (antibody, human IgG1, V domains shown)
VH: B2 VH
VL: B2 VL with G34D
notes: as for B3
EC50 (read off the curve) [7]: ~0.02 µg/mL

B5: modified humanized GC33 (H chain ver.k, L chain G34R) (antibody, human IgG1, V domains shown)
VH: B2 VH
VL: B2 VL with G34R
notes: as for B3
EC50 (read off the curve) [8]: ~0.02 µg/mL

B6: modified humanized GC33 (H chain ver.k, L chain G34K) (antibody, human IgG1, V domains shown)
VH: B2 VH
VL: B2 VL with G34K
notes: as for B3
EC50 (read off the curve) [9]: ~0.02 µg/mL

B7: modified humanized GC33 (H chain ver.k, L chain G34I) (antibody, human IgG1, V domains shown)
VH: B2 VH
VL: B2 VL with G34I
notes: as for B3
EC50 (read off the curve) [9]: ~0.02 µg/mL

B8: M11F1 (antibody, V domains shown)
VH: QVTLKESGPGILQPSQTLSLTCSFSGFSLSIYGMGVGWIRQPSGKGLEWLANIWWNDDKYYNSALKSRLTISKDTSNNQVFLKISSVDTADTATYYCAQIGYFYFDYWGQGTTLTVSS
VL: DVVMTQTPLSLPVSLGDQASISCRSSQSLVHSNGNTYLHWYLQKPGQSPKLLIYKVSNRFSGVPDRFSGSGSGTDFTLKISRVEAEDLGVYFCSQSTHVPWTFGGGTKLEIK
notes: Mouse monoclonal from hybridoma
binding result [10]: binds
FACS X-mode value of the histogram [11]: 4
FACS X-mode value of the histogram [12]: 2
EC50 [13]: 2.17 nM
Kd [14]: 0.2 nM
koff [14]: 3.5e-05 s⁻¹
kon [14]: 140000 M⁻¹ s⁻¹
binding result [15]: no binding
Inhibition of the binding of indicated biotin-Mab to sGPC3 core (%) [16]: 3.9%
Inhibition of the binding of indicated biotin-Mab to sGPC3 core (%) [17]: 5.4%
Inhibition of the binding of indicated biotin-Mab to sGPC3 core (%) [18]: 5.6%
Inhibition of the binding of indicated biotin-Mab to sGPC3 core (%) [19]: 20.9%
Inhibition of the binding of indicated biotin-Mab to sGPC3 core (%) [20]: 24.6%
Inhibition of the binding of indicated biotin-Mab to sGPC3 core (%) [21]: 81.8%
Inhibition of the binding of indicated biotin-Mab to sGPC3 core (%) [22]: -1.5%
Inhibition of the binding of indicated biotin-Mab to sGPC3 core (%) [23]: 2%
FACS X-mode value of the histogram [24]: 9

B9: M1E7 (antibody, human IgG1, kappa, V domains shown)
VH: EVQLQQSGPELVKPGASVKISCKASGYSFTGYYMHWVKQSPEKSLEWIGEINPSTGGTTYNQKFKAKATLTVDKSSSTAYMQLKSLTSEDSAVYYCARRGGLTGTSFFAYWGQGTLVTVSA
VL: DVVMTQTPLSLSVTIGQPASISCKSSQSLLYSNGKTYLNWLQQRPGQAPKHLMYQVSKLDPGIPDRFSGSGSETDFTLKISRVEAEDLGVYYCLQSTYYPLTFGAGTKLELKR
notes: Mouse monoclonal from hybridoma; also called M1E07
binding result [10]: no binding
FACS X-mode value of the histogram [11]: 16
FACS X-mode value of the histogram [12]: 5
EC50 [13]: 0.96 nM
Kd [14]: 2.8 nM
koff [14]: 0.000427 s⁻¹
kon [14]: 150000 M⁻¹ s⁻¹
binding result [15]: no binding
Inhibition of the binding of indicated biotin-Mab to sGPC3 core (%) [16]: 83.9%
Inhibition of the binding of indicated biotin-Mab to sGPC3 core (%) [17]: 6.4%
Inhibition of the binding of indicated biotin-Mab to sGPC3 core (%) [18]: 7.7%
Inhibition of the binding of indicated biotin-Mab to sGPC3 core (%) [19]: 38%
Inhibition of the binding of indicated biotin-Mab to sGPC3 core (%) [20]: 14.8%
Inhibition of the binding of indicated biotin-Mab to sGPC3 core (%) [21]: 14.3%
Inhibition of the binding of indicated biotin-Mab to sGPC3 core (%) [22]: 9%
Inhibition of the binding of indicated biotin-Mab to sGPC3 core (%) [23]: 26%
FACS X-mode value of the histogram [24]: 28
